For assay [1], the target named is T1, Wild type CD117 purified protein (human, UniProt P10721 26-520, limits assumed).
T1 construct: Protein used in BLI/kinetics and cryo-EM; also called wt CD117; Wt CD117
As to the kind of experiment: binding kinetics, FIGS. 45A-45K.

For assay [2], the target named is T2, CC128 variant of CD117 (Y259C + N260D) purified protein (human, UniProt P10721 26-520, limits assumed).
T2 construct: also called CC128-edited CD117 as purified protein
As to the kind of experiment: binding kinetics, FIGS. 45A-45K.

Assay [3] has as its target CC200 variant of CD117 (S261G) purified protein (human, UniProt P10721 26-520, limits assumed). Briefly: binding kinetics, FIGS. 45A-45K.
Assay [4] concerns the target T3, Wild type CD117 expressed on cells (M07e cells, unedited human CD34+ HSPCs) (human, UniProt P10721 26-976). As to the kind of experiment: cell-based or functional assay.
Assay [5] concerns the target T3, Wild type CD117 expressed on cells …. Briefly: flow cytometry on M07e cells, AF647 secondary (FIG. 76A). For orientation: In flow cytometry, cells or beads pass a laser one at a time.
Assay [6] deals with T1, Wild type CD117 purified protein. As to the kind of experiment: monovalent KD, CD117 titrated (FIGS. 73A-73E).
Assay [7] has the same target. As to the kind of experiment: summary Table 75 (repeats Table 71).
The target in assay [8] is T3, Wild type CD117 expressed on cells …. Briefly: summary Table 75 (repeats Table 73).
The target in assay [9] is T1, Wild type CD117 purified protein. Briefly: KD, method not stated (Table 8B).
In the next assay the target is T4, Cyno CD117 (cynomolgus, UniProt F6V858 26-520 (rhesus entry)).
T4 construct: also called cynomolgus CD117
T4 sequence (chain, as listed by the source): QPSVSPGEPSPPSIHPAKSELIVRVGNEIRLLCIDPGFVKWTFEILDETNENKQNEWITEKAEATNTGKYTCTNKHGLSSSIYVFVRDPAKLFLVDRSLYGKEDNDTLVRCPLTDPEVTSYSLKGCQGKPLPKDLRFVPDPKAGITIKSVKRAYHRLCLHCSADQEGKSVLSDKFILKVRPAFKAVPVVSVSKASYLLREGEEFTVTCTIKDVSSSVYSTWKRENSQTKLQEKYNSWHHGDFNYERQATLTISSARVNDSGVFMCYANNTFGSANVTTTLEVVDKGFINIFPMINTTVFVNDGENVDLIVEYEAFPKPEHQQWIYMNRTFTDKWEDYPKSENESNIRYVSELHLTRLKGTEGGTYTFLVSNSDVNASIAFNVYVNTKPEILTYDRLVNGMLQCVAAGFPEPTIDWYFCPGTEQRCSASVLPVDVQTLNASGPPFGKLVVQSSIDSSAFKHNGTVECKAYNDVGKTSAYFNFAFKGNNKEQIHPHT
Briefly: KD, method not stated (Table 8B).

The target in assay [10] is T5, CC128 variant of CD117 (Y259C + N260D) expressed on cells (M07e, CD34+ HSPCs) (human, UniProt P10721 26-976).
T5 construct: Edited cell pools also hold minor alleles (Y259C alone, N260D alone); also called CC128-edited CD117; CC128-M07e
T5 sequence (P10721 26-976 Y259C/N260D limits assumed): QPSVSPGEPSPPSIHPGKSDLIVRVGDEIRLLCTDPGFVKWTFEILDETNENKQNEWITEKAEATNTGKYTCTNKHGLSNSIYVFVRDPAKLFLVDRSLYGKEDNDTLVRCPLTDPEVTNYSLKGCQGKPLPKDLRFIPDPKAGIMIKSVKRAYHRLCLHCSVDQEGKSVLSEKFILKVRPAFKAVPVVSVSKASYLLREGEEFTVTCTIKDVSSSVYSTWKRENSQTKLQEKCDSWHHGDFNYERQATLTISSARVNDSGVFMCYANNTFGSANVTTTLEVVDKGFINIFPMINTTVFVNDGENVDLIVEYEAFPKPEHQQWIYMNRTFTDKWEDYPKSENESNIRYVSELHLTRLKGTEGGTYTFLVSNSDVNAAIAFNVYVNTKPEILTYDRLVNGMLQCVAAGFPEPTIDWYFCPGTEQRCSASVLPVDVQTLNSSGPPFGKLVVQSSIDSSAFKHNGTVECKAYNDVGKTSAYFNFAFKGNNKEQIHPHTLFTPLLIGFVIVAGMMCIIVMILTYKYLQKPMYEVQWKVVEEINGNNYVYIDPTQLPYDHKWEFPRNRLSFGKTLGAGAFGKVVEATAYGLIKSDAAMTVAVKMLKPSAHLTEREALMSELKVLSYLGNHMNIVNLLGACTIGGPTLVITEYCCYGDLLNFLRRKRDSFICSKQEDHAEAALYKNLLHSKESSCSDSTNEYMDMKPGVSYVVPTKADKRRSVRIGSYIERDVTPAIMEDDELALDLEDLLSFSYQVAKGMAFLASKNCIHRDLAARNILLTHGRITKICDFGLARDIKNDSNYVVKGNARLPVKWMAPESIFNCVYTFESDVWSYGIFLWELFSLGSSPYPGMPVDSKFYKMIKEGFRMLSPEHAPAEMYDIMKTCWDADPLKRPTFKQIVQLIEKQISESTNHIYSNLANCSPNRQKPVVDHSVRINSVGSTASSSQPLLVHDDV
Briefly: binding to edited M07e cells (Table 8B).

The values below come from patent US20260166085A1 (BEAM THERAPEUTICS, published 2026).

T2 sequence (P10721 26-520 Y259C/N260D limits assumed): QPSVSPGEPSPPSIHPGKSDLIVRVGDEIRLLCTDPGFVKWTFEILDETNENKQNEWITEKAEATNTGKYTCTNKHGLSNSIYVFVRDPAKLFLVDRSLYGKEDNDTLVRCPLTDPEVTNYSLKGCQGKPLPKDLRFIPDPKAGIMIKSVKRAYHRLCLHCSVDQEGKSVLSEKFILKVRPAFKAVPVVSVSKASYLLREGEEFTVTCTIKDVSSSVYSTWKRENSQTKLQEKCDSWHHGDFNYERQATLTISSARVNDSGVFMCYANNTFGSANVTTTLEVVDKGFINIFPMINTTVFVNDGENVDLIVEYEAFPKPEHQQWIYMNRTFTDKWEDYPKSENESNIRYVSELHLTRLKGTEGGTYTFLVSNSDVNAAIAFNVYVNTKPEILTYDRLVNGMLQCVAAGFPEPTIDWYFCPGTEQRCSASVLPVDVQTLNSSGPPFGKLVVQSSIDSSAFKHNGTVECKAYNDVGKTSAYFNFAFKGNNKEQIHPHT
Sequence of CC200 variant of CD117 (S261G) purified protein (P10721 26-520 S261G limits assumed): as the sequence (P10721 26-520 Y259C/N260D limits assumed) above, with C234Y, D235N, S236G counted along it
T3 sequence (P10721 26-976 limits assumed): as the sequence (P10721 26-976 Y259C/N260D limits assumed) above, with C234Y, D235N counted along it
T1 sequence (P10721 26-520 limits assumed): as the sequence (P10721 26-520 Y259C/N260D limits assumed) above, with C234Y, D235N counted along it

B1: ABTx052 variant VH_R59K (antibody, human IgG1, V domains shown)
VH: QVQLVQSGAAVKKPGESLKISCKGSGYRFTSYWIGWVRQMPGKGLEWMGIIYPGDSDTKYSPSFQGQVTISAGKSISTAYLQWSSLKASDTAMYYCARHGRGYNGYEGAFDIWGQGTMVTVSS
VL: AIQLTQSPSSLSASVGDRVTITCRASQGISSALAWYQQKPGKAPKLLIYDASSLESGVPSRFSGSGSGTDFTLTISSLQPEDFATYYCQQFNSYPLTFGGGTKVEIKR
A word on the Kd: it is the concentration at which binding is half-saturated. A high value points to weaker binding. One may read the koff as the first-order rate constant of dissociation. High values mean fast dissociation, low ones slow dissociation. The term kon denotes the second-order rate constant of association. In assay [1], B1 gave a Kd of 0.986 nM, a koff of 0.000713 s⁻¹ and a kon of 723000 M⁻¹ s⁻¹. For the same molecule, the binding result in assay [2] is reported as “no binding”. Moreover, the binding result in assay [3] is “no binding”.

B2: ABTx052 variant VL_N92R (antibody, human IgG1, V domains shown)
VH: QVQLVQSGAAVKKPGESLKISCKGSGYRFTSYWIGWVRQMPGKGLEWMGIIYPGDSDTRYSPSFQGQVTISAGKSISTAYLQWSSLKASDTAMYYCARHGRGYNGYEGAFDIWGQGTMVTVSS
VL: AIQLTQSPSSLSASVGDRVTITCRASQGISSALAWYQQKPGKAPKLLIYDASSLESGVPSRFSGSGSGTDFTLTISSLQPEDFATYYCQQFRSYPLTFGGGTKVEIK
Turning to B2, in [1], the Kd is 0.683 nM, the koff is 0.000434 s⁻¹ and the kon is 635000 M⁻¹ s⁻¹. The binding result in assay [2] is given as “no binding”. In addition, the binding result in [3] was “no binding”.

B3: ABTx052 variant VL_N92Y (antibody, human IgG1, V domains shown)
VH: QVQLVQSGAAVKKPGESLKISCKGSGYRFTSYWIGWVRQMPGKGLEWMGIIYPGDSDTRYSPSFQGQVTISAGKSISTAYLQWSSLKASDTAMYYCARHGRGYNGYEGAFDIWGQGTMVTVSS
VL: AIQLTQSPSSLSASVGDRVTITCRASQGISSALAWYQQKPGKAPKLLIYDASSLESGVPSRFSGSGSGTDFTLTISSLQPEDFATYYCQQFYSYPLTFGGGTKVEIK
In assay [1], B3 displayed a Kd of 0.841 nM, a koff of 0.000635 s⁻¹ and a kon of 755000 M⁻¹ s⁻¹. Further, the binding result in assay [2] is given as “no binding”. For the same molecule, the binding result in assay [3] was “no binding”.

B4: ABTx052 variant VL_Y94H (antibody, human IgG1, V domains shown)
VH: QVQLVQSGAAVKKPGESLKISCKGSGYRFTSYWIGWVRQMPGKGLEWMGIIYPGDSDTRYSPSFQGQVTISAGKSISTAYLQWSSLKASDTAMYYCARHGRGYNGYEGAFDIWGQGTMVTVSS
VL: AIQLTQSPSSLSASVGDRVTITCRASQGISSALAWYQQKPGKAPKLLIYDASSLESGVPSRFSGSGSGTDFTLTISSLQPEDFATYYCQQFNSHPLTFGGGTKVEIK
Regarding B4, in [1], the affinity, expressed as Kd, was 3.16 nM; the koff amounted to 0.00178 s⁻¹; the kon turned out to be 563000 M⁻¹ s⁻¹. Moreover, the binding result in [2] was “no binding”. Moreover, the binding result in assay [3] is on record as “no binding”.

B5: ABTx052 variant VL_Y94S (antibody, human IgG1, V domains shown)
VH: QVQLVQSGAAVKKPGESLKISCKGSGYRFTSYWIGWVRQMPGKGLEWMGIIYPGDSDTRYSPSFQGQVTISAGKSISTAYLQWSSLKASDTAMYYCARHGRGYNGYEGAFDIWGQGTMVTVSS
VL: AIQLTQSPSSLSASVGDRVTITCRASQGISSALAWYQQKPGKAPKLLIYDASSLESGVPSRFSGSGSGTDFTLTISSLQPEDFATYYCQQFNSSPLTFGGGTKVEIK
In assay [1], B5 displayed a Kd of 3.38 nM, a koff of 0.00218 s⁻¹ and a kon of 643000 M⁻¹ s⁻¹. In assay [2], the binding result is listed as “no binding”. In addition, in assay [3], the binding result was “no binding”.

B6: ABTx167 (antibody, human IgG1, kappa, L234A L235A)
heavy: QVQLVQSGAAVKKPGESLKISCKGSGYRFTSYWIGWVRQMPGKGLEWMGIIYPGDSDTRYSPSFQGQVTISAGKSISTAYLQWSSLKASDTAMYYCARHGRGYNGYEGAFDIWGQGTMVTVSSASTKGPSVFPLAPSSKSTSGGTAALGCLVKDYFPEPVTVSWNSGALTSGVHTFPAVLQSSGLYSLSSVVTVPSSSLGTQTYICNVNHKPSNTKVDKKVEPKSCDKTHTCPPCPAPEAAGGPSVFLFPPKPKDTLYITREPEVTCVVVAVSHEDPEVKFNWYVDGVEVHNAKTKPREEQYNSTYRVVSVLTVLHQDWLNGKEYKCKVSNKALPAPIEKTISKAKGQPREPQVYTLPPSRDELTKNQVSLTCLVKGFYPSDIAVEWESNGQPENNYKTTPPVLDSDGSFFLYSKLTVDKSRWQQGNVFSCSVMHEALHNHYTQKSLSLSPG
light: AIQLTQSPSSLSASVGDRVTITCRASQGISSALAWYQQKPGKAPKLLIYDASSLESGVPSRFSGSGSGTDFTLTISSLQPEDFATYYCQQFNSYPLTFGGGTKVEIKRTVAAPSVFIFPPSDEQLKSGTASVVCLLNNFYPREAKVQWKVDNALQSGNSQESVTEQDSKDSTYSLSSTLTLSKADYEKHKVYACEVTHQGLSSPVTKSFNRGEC
For the molecule B6, the “IC50 [M], viability of unedited HSCs with 100 ng/mL SCF, 5-7 days” value in [4] was 2.56e-07 M.

B7: ABTx202 (antibody, human IgG1, V domains shown)
VH: EVQLVESGGGLVQPGRSLRLSCAASGFTFDDYAMHWVRQAPGKGLEWVSGISWNSGTIGYADSVKGRFTSSRDNAKNSLYLEMNSLRAEDTALYYCAKDSPPGYCSSASCYGAFDIWGQGTMVTVSS
VL: EIVMTQSPGTLSLSPGERATLSCRASQSVSSSYLAWYQQKPGQAPRLLIYGSSTRATGIPARFSGSGSGTEFALTISSLQSEDFAVYYCQQYNFWPYTFGQGTKVEIK
Broadly, the EC50 is the concentration at which the effect is half-maximal. B7: the EC50 in assay [5] and in [8] was 7.98 nM throughout. Moreover, the Kd in assay [6] and in [7] was 2.42 nM throughout. The koff in assay [6] amounted to 0.00014 s⁻¹. The kon in assay [6] worked out at 57800 M⁻¹ s⁻¹.

B8: ABTx205 (antibody, human IgG1, V domains shown)
VH: EVQLVESGGGLVQPGRSLRLSCAASGFTFDDYAMHWVRQAPGKGLEWVSGISWNSGTIGYADSVKGRFTNSRDNAKNSLYLEMNSLRAEDTALYYCAKDSPPGYCSSASCYGAFDIWGQGTMVTVSS
VL: DIVMTQSPSFLSASVGDRVTITCRASQGISSYLAWYQQKPGKAPKLLIYAASTLQNGVPSRFSGSGSGTDFTLTITSLQPEDFATYYCQQSYSTPYTFGQGTKLEIK
Consider B8, for which a half-maximal effect in [5] (EC50) was put at 7.48 nM. In [6], this molecule registered a Kd of 2.07 nM, a koff of 0.000117 s⁻¹ and a kon of 56600 M⁻¹ s⁻¹. Moreover, the dissociation constant Kd in [7] is 2.07 nM. Besides, in assay [8], the EC50 was 7.48 nM.

B9: ABTx061 (antibody, human IgG1, kappa, V domains shown)
VH: EVQLVESGGGLVQPGRSLRLSCAASGFTFDDYAMHWVRQAPGKGLEWVSGISWNSGSIGYADSVKGRFTISRDNAKNSLYLQMNSLRAEDTALYYCAKDTPLGYCSTTSCYGAFDIWGQGTMVTVSS
VL: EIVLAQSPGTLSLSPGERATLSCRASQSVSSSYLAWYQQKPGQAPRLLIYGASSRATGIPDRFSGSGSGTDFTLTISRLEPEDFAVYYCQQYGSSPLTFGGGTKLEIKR
Regarding B9, the results for the Kd (in assay [9]; in the assay with Cyno CD117) were 18.6 nM and 29.5 nM, respectively. For the same molecule, the binding result in [10] is on record as “no binding”.

B10: ABTx025 (antibody, human IgG1, kappa, V domains shown)
VH: EVQLVESGGGLVQPGRSLRLSCAASGFTFDDYAMHWVRQAPGKGLEWVSGISWNSGTIGYADSVKGRFTNSRDNAKNSLYLEMNSLRAEDTALYYCAKDSPPGYCSSASCYGAFDIWGQGTMVTVSS
VL: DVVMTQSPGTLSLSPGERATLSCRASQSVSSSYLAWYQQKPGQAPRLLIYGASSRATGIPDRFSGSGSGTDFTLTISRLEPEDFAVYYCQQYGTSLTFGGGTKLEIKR
Regarding B10, the Kd in [9] is 1.25 nM; in the assay with Cyno CD117, 5.31 nM; in [6], 1470 nM; in assay [7], 1470 nM. The koff in assay [6] worked out at 0.0509 s⁻¹. Also, the kon in assay [6] came out at 37200 M⁻¹ s⁻¹. Moreover, in assay [10], the binding result is “no binding”.

B11: ABTx062 (antibody, human IgG1, kappa, V domains shown)
VH: EVQLVESGGGLVQPGRSLRLSCSASGFTFDDYAMHWVRQAPGKGLEWVSGISWNSGTIGYADSVKGRFTISRDNAKNSLYLQMNSLRAEDTALYYCAKDSPPGYCSSASCYGAFDIWGQGTTVTVSS
VL: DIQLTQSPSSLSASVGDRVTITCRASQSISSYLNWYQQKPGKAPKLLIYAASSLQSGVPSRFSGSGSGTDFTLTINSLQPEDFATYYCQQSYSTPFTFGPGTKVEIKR
As to B11, the Kd worked out at 18 nM in assay [9] and 31.8 nM with Cyno CD117. In addition, the binding result in assay [10] was “no binding”.

B12: ABTx206 (antibody, human IgG1, V domains shown)
VH: EVQLVESGGGLVQPGRSLRLSCAASGFTFDDYAMHWVRQAPGKGLEWVSGISWNSGTIGYADSVKGRFTNSRDNAKNSLYLEMNSLRAEDTALYYCAKDSPPGYCSSASCYGAFDIRGQGTMVTVSS
VL: DIVMTQSPSFLSASVGDRVTITCRASQGISSYLAWYQQKPGKAPKLLIYAASTLQNGVPSRFSGSGSGTDFTLTITSLQPEDFATYYCQQSYSTPYTFGQGTKLEIK
Regarding B12, the concentration giving a half-maximal response (EC50) in assay [5] was found to be 14.2 nM. In [6], the Kd was 1.26 nM, the koff stood at 5.07e-05 s⁻¹ and the kon is 40300 M⁻¹ s⁻¹. The affinity in assay [7], expressed as Kd, was 1.26 nM. Further, the response in [8] was half-maximal at 14.2 nM (EC50).

B13: ABTx203 (antibody, human IgG1, V domains shown)
VH: EVQLVESGGGLVQPGRSLRLSCAASGFTFDDYAMHWVRQAPGKGLEWVSGISWNSGTIGYADSVKGRFTNSRDNAKNSLYLEMNSLRAEDTALYYCAKDWPSGFCSSAYCYGAFDIWGQGTMVTVSS
VL: DIVMTQSPSFLSASVGDRVTITCRASQGISSYLAWYQQKPGKAPKLLIYAASTLQNGVPSRFSGSGSGTDFTLTITSLQPEDFATYYCQQSYSTPYTFGQGTKLEIK
For the molecule B13, a half-maximal response in assay [5] (EC50) required 5.56 nM. Further, in assay [6], the Kd was 6.62 nM, the koff stood at 0.000643 s⁻¹ and the kon amounted to 97100 M⁻¹ s⁻¹. In [7], binding was characterised by a dissociation constant (Kd) of 6.62 nM. Also, it took 5.56 nM to reach a half-maximal effect in assay [8] (EC50).

B14: ABTx030 (antibody, V domains shown)
VH: QVQLQESGGGLVKPGGSLRLSCAASGFTFSSYSMNWVRQAPGKGLEWVSSIGTISSYIYYADSVKGRFTISRDNAKNSLYLQMNSLRAEDTAVYYCARDYYGGLFDYWGQGTLVTVSS
VL: not shown
For B14, the dissociation constant (Kd) in [9] worked out at 0.449 nM; in the assay with Cyno CD117 it was 0.83 nM.
